Reference: publication PMC5524822

Target: HIV-1 Env of virus AT1 with the I371V mutation (HIV-1)

Substance: VRC01 (antibody)
- IC50 of neutralisation of the virus in TZM-bl cells (luciferase reporter): 0.0724 µg/mL
